Here are results for 1 substance from US11213597B2, “Kinin-based theranostic probes for solid cancers and uses thereof” (SOCIETE DE COMMERCIALISATION DES PRODUITS DE LA RECHERCHE …, priority 2015, dated 2022).

[ ]: non-standard residue; d: D form. The star is where a group is joined. NOTA = O=C(O)CN1CCN(CC(=O)O)CCN(CC(=O)*)CC1; Oic = O=C(O)[C@@H]1C[C@@H]2CCCC[C@@H]2N1; d2Nal = N[C@H](Cc1ccc2ccccc2c1)C(=O)O; αMeF = C[C@](N)(Cc1ccccc1)C(=O)O; Orn = NCCC[C@H](N)C(=O)O; βAla = NCCC(=O)O

The conditions of data set [1]: rat. The method, then: For in vivo stability studies in normal healthy rats and mice, peptide was reconstituted in PBS and 20-30 MBq (500-800 μCi; 100 μL) were injected through the tail vein to isoflurane anesthetized animals. At different times post-injection, blood and urine were collected, centrifuged and followed by a protein precipitation with acetonitrile. Samples were analyzed by UPLC using a C-18 column and a radio-detector. Analysis and retention times were compared to the original radiolabeled peptide to monitor peptide cleavage.

The test system of data set [2] is human solid tumors (e.g., brain and prostate) expressing naturally-occurring native B1R. In words: PET imaging of solid tumors expressing native B1R (LN-CaP tumor-bearing nude mouse, F98). The class given is in vivo. As for the experimental part: FIGS. 4A-C illustrate in vitro cell uptake and anticancer activity of ^64Cu-NOTA-βAla-Orn^1-Arg^2-Oic^3-Pro^4-Gly^5-(αMe)Phe^6-Ser^7-DβNal^8-Ile^9-OH; ^64Cu-NOTA-B1RA) (SEQ ID NO: 6) in human prostate cancer cells (PC3 and LN-CaP). Cell uptake of ^64Cu-Nota-B1RA (in the presence or not of competitor R954) in PC3 cells measured at 20 h post-treatment by radiometric assays (A). Dose-dependent antiproliferative effects of ^64Cu-acetate and ^64Cu/Nota-B1RA on PC3 cells (B) and LN-CaP cells (C), assessed by clonogenic assays. FIG. 4 D illustrates the molecular imaging of prostate cancer with ^64Cu/Nota-B1RA. PET images of LN-CaP tumor-bearing nude mouse obtained after injection of 64Cu/Nota-B1RA (9 MBq) at 0.5 h post-injection (p.i.). […] FIG. 4F confirms the immunohistochemical (IHC) overexpression of B1R in tumoral tissues of LNCaP-bearing mice (blackiste dark-color).
FIGS. 5A-C illustrate in vitro cellular/nuclear uptake and anticancer activity of ^64Cu-NOTA-βAla-Orn^1-Arg^2-Oic^3-Pro^4-Gly^5-(αMe)Phe^6-Ser^7-DβNal^8-Ile^9-OH (Cu/Nota-B1RA) (SEQ ID NO: 6) in F98 GBM cells. Cell uptake and nuclear localization of non-radioactive, free Cu and Cu/Nota-B1RA in F98 glioma cells measured at 20 h post-treatment by ICP-MS (A). Dose-dependent antiproliferative effects of ^64Cu-acetate, ^64Cu/Nota-B1RA on F98 wildtype (B) or shRNA-B1R knockdown F98 cells (C) using clonogenic assays. […]

Take “^64Cu-NOTA-βAla-Orn^1-Arg^2-Oic^3-Pro^4-Gly^5-(αMe)Phe^6-Ser^7-DβNal^8-Ile^9-OH ({NOTA}-[βAla][Orn]R[Oic]PG[αMeF]S[d2Nal]I-OH; also: 64Cu complexed by NOTA)”: the in vivo stability entry in data set [1] is recorded as “no degradation sign”. Besides, the “elimination (pharmacokinetics)” value in data set [1] (in vivo) was “largely eliminated by the kidneys in urine as intact form”. The “non-invasive detection of solid tumors” value in data set [2] is “capacity to identify or detect non-invasively and rapidly human solid tumors”.
